Source: article PMC4471349

Molecular target: pVP28-Agα1p displayed on the cell surface of P. pastoris (white spot syndrome virus (WSSV))
Experiment: yeast agglutination; two yeast clones mixed in PBS with 1% BSA at initial OD600 = 0.7, left to stand 1 h; percent agglutination from the fall in OD600; cells induced with methanol 24-96 h

## mPmRab7-Agα1p displayed on the cell surface of P. pastoris (domain or fragment)
  percent agglutination (48 h induction): 38%
  percent agglutination (longer induction times): 20%
